In patent US20140057807A1 (UNIVERSITY OF CHICAGO, published 2014):

B1: SEQ ID NO 218 (designed binder)
chain: VSDVPRDLGVVAATPTSLRISWDAPAVTVRSYDIYYWYTTGGSQEFTVPGSKSTATISGLKPGVMYNIYVTAVDADVGGPISINYRT
B2: SEQ ID NO 213 (designed binder)
chain: VSDVPRDLEVVAATPTSLLISWDAPAVTVRGYSIKYGSTISADQEFTVPGSKSTATISGLKPGVFYVIMVWAVYYAYANYPISINYRT
B3: SEQ ID NO 210 (designed binder)
chain: VSDVPRDLEVVAATPTSLLISWDAPAVTVRKYYITYYRGRSGNQEFTVPGSKSTATISGLKPGVKYHILVSAVKYPFRRLPISINYRT
B4: SEQ ID NO 203 (designed binder)
chain: VSDVPRDLEVVAATPTSLLISWDAPAVTVRAYQIRYAYYSVGRQEFTVPGSKSTATISGLRPGVKYHISVYAVNGGMVTDPISINYRT
B5: SEQ ID NO 207 (designed binder)
chain: VSDVPRDLEVVAATPTSLLISWDAPAVTVRSYYIGYSAYDEYGGRQEFTVPGSKSTATISGLKPGVSYSINVFAVYTMTGRAPISINYRT
B6: SEQ ID NO 212 (designed binder)
chain: VSDVPRDLEVVAATPTSLLISWDAPAVTVRTYSISYSFGLDYEYDQEFTVPGSKSTATISGLKPGVQYYIVVDAVAGWQYYPISINYRT
B7: SEQ ID NO 215 (designed binder)
chain: VSDVPRDLEVVAATPTSLLISWDAPAVTVRTYVISYMSYDAQGGQNQEFTVPGSKSTATISGLKPGVAYNIIVSAVGGGQQAVPISINYRT
B8: SEQ ID NO 205 (designed binder)
chain: VSDVPRDLEVVAATPTSLLISWDAPAVTVRIYSIYYYSYVMRGYYFQEFTVLGSKSTATISGLKPGVNYDINVQAVYHRGWRYPISINYRT
B9: SEQ ID NO 219 (designed binder)
chain: VSDVPRDLEVVAATPTSLLISWDAPAVTVRRYYIGYNWQSPAWNQEFTVPGSKSTATISGLKPGVYYQIYVAAVLRYGDYAPISINYRT
B10: SEQ ID NO 211 (designed binder)
chain: VSDVPRDLEVVAATPTSLLISWDAPAVTVRTYWIVYYRSVYSNGQEFTVPGSKSTATISGLKPGVIYSIRVIAVSYYYYGPISINYRT
B11: SEQ ID NO 209 (designed binder)
chain: VSDVPRDLEVVAATPTSLLISWDAPAVTVRNYYIQYMVNYNDTQEFTVPGSKSTATISGLKPGVYYDIKVAAVYVAEDRPISINYRT
B12: SEQ ID NO 208 (designed binder)
chain: VSDVPRDLEVVAATPTSLLISWDAPAVTVRKYSIYYFSSYSGIAQEFTVPGSKSTATISGLKPGVYYGIYVEAVYHHYSPPISINYRT
B13: SEQ ID NO 214 (designed binder)
chain: VSDVPRDLEVVAATPTSLLISWDAPAVTVRSYHIYDYYNVHSYYGQEFTVPGSKSTATISGLKPGVSYAIYVGAVNEKQLGPISINYRT
B14: SEQ ID NO 204 (designed binder)
chain: VSDVPRDLEVVAATPTSLLISWDAPAVTVRYYWIIYWEAWEYVQAQEFTVPGSKSTATISGLKPGVHYGIMVSAVSGEQPWYPISINYRT
B15: SEQ ID NO 216 (designed binder)
chain: VSDVPRDLEVVAATPTSLLISWDAPAVTVREYSIYHSWTLVYRRQEFTVPGSKSTATISGLKPGVNYYIYVGAVDNGYGPDPISINYRT
B16: SEQ ID NO 206 (designed binder)
chain: VSDVPRDLEVVAATPTSLLISWDAPAVAVRAYSIDYYHDNGDGTQEFTVPGSKSTATISGLKPGVTYGILVYAVVSNMGIPISINYRT

What follows are binders tested against T1, human serum albumin (human, UniProt P02768 25-609) (assay: cradle library selection hit).
T1 construct: also called HSA
T1 sequence (P02768 25-609 limits assumed): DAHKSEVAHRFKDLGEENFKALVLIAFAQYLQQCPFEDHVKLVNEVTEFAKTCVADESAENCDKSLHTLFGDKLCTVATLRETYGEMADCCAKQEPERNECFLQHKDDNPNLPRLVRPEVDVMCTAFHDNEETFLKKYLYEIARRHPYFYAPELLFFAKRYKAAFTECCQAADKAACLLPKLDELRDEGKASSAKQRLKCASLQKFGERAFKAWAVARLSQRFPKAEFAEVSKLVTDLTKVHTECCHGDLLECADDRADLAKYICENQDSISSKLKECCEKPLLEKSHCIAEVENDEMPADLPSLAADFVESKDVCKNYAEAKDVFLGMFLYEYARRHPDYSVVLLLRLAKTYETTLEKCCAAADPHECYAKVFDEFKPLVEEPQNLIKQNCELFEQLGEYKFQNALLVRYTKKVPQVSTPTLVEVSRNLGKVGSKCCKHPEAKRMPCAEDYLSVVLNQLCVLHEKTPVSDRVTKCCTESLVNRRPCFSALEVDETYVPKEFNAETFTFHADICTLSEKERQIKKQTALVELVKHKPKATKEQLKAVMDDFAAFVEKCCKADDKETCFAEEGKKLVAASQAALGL

Row | binding result | Binder
1 | binds | B1
2 | binds | B2
3 | binds | B3
4 | binds | B4
5 | binds | B5
6 | binds | B6
7 | binds | B7
8 | binds | B8
9 | binds | B9
10 | binds | B10
11 | binds | B11
12 | binds | B12
13 | binds | B13
14 | binds | B14
15 | binds | B15
16 | binds | B16
